# From US20190233808
# Where a chain is given by its changes, count along the chain named. Names may count otherwise.
# T1: synthetic MMP1 substrate MCA-Lys-Pro-Leu-Gly-Leu-DPA-Ala-Arg-NH2 (R&D Systems, Cat# ES010)
# T1 chain: KPLGLXAR
# B1: trypsin-activated MMP1 (43 kD active human matrix metalloproteinase-1) (protein)
# chain: VLTEGNPRWEQTHLTYRIENYTPDLPRADVDHAIEKAFQLWSNVTPLTFTKVSEGQADIMISFVRGDHRDNSPFDGPGGNLAHAFQPGPGIGGDAHFDEDERWTNNFREYNLHRVAAHELGHSLGLSHSTDIGALMYPSYTFSGDVQLAQDDIDGIQAIYGRSQNPVQPIGPQTPKACDSKLTFDAITTIRGEVMFFKDRFYMRTNPFYPEVELNFISVFWPQLPNGLEAAYEFADRDEVRFFKGNKYWAVQGQNVLHGYPKDIYSSFGFPRTVKHIDAALSEENTGKTYFFVANKYWRYDEYKRSMDPGYPKMIAHDFPGIGHKVDAVFMKDGFFYFFHGTRQYKFDPKTKRILTLQKANSWFNCRKN
# B2: catalytically inactive mutant MMP1 (E219Q) (protein)
# chain: B1 chain with E119Q
# Columns and labels:
# [1] = target: FITC-labeled bovine type-1 collagen (Chondrex, Cat# 4001), P02453
# [2] = target: T1, synthetic MMP1 substrate …
# Sequence of FITC-labeled bovine type-1 collagen (Chondrex, Cat# 4001), P02453 (P02453 162-1217, chain 1 of 2): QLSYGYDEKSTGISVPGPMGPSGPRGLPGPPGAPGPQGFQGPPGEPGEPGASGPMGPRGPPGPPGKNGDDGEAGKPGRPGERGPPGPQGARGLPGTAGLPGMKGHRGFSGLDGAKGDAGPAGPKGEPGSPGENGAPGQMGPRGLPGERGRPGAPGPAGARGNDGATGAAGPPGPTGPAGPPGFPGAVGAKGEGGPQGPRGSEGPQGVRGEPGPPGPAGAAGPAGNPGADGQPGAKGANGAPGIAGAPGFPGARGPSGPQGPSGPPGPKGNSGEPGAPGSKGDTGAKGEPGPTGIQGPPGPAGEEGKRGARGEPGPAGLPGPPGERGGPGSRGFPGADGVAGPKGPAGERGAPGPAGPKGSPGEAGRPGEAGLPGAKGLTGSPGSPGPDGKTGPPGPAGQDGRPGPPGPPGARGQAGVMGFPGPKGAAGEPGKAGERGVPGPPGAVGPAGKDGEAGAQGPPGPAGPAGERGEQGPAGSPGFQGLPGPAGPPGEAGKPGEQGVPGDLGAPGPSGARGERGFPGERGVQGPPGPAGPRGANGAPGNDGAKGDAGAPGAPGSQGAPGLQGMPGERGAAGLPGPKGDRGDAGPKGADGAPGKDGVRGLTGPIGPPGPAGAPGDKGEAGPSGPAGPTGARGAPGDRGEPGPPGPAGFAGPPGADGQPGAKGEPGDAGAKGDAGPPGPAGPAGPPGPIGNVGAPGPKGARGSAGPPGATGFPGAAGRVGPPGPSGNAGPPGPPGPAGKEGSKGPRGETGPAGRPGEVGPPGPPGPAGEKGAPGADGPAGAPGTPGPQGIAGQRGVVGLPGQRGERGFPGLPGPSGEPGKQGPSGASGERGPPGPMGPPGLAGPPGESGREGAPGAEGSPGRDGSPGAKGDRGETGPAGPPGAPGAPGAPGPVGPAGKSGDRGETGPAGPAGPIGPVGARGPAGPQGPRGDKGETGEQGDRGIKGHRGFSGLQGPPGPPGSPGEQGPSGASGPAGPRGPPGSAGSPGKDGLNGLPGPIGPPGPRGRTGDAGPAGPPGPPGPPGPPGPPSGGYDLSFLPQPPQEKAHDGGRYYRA
# Sequence of FITC-labeled bovine type-1 collagen (Chondrex, Cat# 4001), P02453 (P02453 other isoform, or with tags, fused parts or gaps, chain 2 of 2): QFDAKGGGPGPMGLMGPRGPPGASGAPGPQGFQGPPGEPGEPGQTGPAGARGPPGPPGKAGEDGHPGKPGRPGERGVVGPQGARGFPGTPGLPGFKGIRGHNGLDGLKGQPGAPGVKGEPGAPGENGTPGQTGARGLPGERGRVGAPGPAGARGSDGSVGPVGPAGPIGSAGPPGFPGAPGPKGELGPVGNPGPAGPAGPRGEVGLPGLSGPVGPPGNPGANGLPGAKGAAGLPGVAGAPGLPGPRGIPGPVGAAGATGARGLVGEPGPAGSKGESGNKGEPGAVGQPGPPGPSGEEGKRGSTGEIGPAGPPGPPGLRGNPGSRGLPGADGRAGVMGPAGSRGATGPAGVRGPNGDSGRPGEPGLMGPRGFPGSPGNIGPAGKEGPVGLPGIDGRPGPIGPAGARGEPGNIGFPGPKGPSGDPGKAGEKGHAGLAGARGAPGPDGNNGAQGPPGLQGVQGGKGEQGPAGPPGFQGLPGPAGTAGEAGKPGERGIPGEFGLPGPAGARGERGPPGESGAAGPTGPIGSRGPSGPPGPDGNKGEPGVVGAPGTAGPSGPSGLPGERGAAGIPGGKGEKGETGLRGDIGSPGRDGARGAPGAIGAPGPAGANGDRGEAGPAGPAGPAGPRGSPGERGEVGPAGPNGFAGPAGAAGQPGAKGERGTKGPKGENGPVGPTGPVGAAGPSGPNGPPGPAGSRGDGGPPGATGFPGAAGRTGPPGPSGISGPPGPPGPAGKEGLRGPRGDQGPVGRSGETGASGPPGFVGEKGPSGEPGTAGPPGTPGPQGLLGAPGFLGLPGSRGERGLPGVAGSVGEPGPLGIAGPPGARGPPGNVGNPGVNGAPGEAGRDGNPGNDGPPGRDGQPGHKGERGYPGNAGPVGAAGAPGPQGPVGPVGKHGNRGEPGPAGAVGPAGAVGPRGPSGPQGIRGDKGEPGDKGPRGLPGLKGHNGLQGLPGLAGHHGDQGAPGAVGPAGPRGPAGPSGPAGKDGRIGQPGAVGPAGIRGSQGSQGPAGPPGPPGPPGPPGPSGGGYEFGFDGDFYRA
protein,measurement,setting,value
B1,collagen cleavage on SDS PAGE,[1],active MMP1 cleaves type-1 collagen into ¾ and ¼ fragments
same,kcat (weight-based collagen degradation assay),[1],~19 monomers per MMP1 per hour
same,kcat/MMP1/hr using 1 mg/ml concentration (+MMP1 for 1 hr),[1],0.5 /MMP1/hr
same,kcat/MMP1/hr using 1 mg/ml concentration (+MMP1 for 2 hr),[1],0.21 /MMP1/hr
same,kcat/MMP1/hr using 1 mg/ml concentration (+MMP1 for 3 hr),[1],0.19 /MMP1/hr
same,kcat/MMP1/hr using 1 mg/ml concentration (+MMP1 for 4 hr),[1],0.15 /MMP1/hr
same,kcat/MMP1/hr using 1 mg/ml concentration (+MMP1 for 5 hr),[1],0.14 /MMP1/hr
same,kcat/MMP1/hr using 1 mg/ml concentration (+MMP1 for 6 hr),[1],0.11 /MMP1/hr
same,kcat/MMP1/hr using 1 mg/ml concentration (+MMP1 for 7 hr),[1],0.1 /MMP1/hr
same,kcat/MMP1/hr using 1 mg/ml concentration (+MMP1 for 8 hr),[1],0.1 /MMP1/hr
same,kcat/MMP1/hr using 1 mg/ml concentration (+MMP1 for 9 hr),[1],0.09 /MMP1/hr
same,kcat/MMP1/hr using 1 mg/ml concentration (+MMP1 for 10 hr),[1],0.09 /MMP1/hr
same,kcat/MMP1/hr using 114.2 mg/ml concentration (+MMP1 for 1 hr),[1],58 /MMP1/hr
same,kcat/MMP1/hr using 114.2 mg/ml concentration (+MMP1 for 2 hr),[1],24 /MMP1/hr
same,kcat/MMP1/hr using 114.2 mg/ml concentration (+MMP1 for 3 hr),[1],22 /MMP1/hr
same,kcat/MMP1/hr using 114.2 mg/ml concentration (+MMP1 for 4 hr),[1],17 /MMP1/hr
same,kcat/MMP1/hr using 114.2 mg/ml concentration (+MMP1 for 5 hr),[1],16 /MMP1/hr
same,kcat/MMP1/hr using 114.2 mg/ml concentration (+MMP1 for 6 hr),[1],13 /MMP1/hr
same,kcat/MMP1/hr using 114.2 mg/ml concentration (+MMP1 for 7 hr),[1],11 /MMP1/hr
same,kcat/MMP1/hr using 114.2 mg/ml concentration (+MMP1 for 8 hr),[1],11 /MMP1/hr
same,kcat/MMP1/hr using 114.2 mg/ml concentration (+MMP1 for 9 hr),[1],10 /MMP1/hr
same,kcat/MMP1/hr using 114.2 mg/ml concentration (+MMP1 for 10 hr),[1],10 /MMP1/hr
same,reaction rate k (RFU of degraded substrate by 0.05 µg MMP1),[2],k=0.26±0.02 RFU/min
same,specific activity (RFU),[2],k/0.05=5.2 RFU/min/µg
same,"specific activity (fluorogenic peptide substrate, 37° C.)",[2],~999 pmol/min/µg
B2,collagen degradation on SDS PAGE,[1],did not show degradation of type-1 collagen
